According to patent US20230357429A1 (JANUX THERAPEUTICS, published 2023):
Substitutions are numbered along the chain they refer to. Names and notes keep the numbering of the source. Where no end group is shown, it is not given here.

B1: PC-34 (bispecific antibody)
light: GGVDFCALYHWPICYQGGGGSGGLSGRSDAGSPLGLAGSGGSDIQLTQSPSSLSASVGDRVSITCKASQDVSIAVAWYQQKPGKAPKLLIYSASYRYTGVPDRFSGSGSGTDFTLTISSLQPEDFAVYYCQQHYITPLTFGAGTKVEIKRTVAAPSVFIFPPSDEQLKSGTASVVCLLNNFYPREAKVQWKVDNALQSGNSQESVTEQDSKDSTYSLSSTLTLSKADYEKHKVYACEVTHQGLSSPVTKSFNRGEC
heavy: not shown
notes: Masked polypeptide complex: anti-TROP2 F108A, anti-CD3 H101A; CD3 mask …
B2: PC-42 (bispecific antibody)
light: B1 light
heavy: EVQLVESGGGLVQPGGSLRLSCAASGSTFYTAVMGWVRQAPGKGLEWVAAIRWTALTTSYADSVKGRFTISRDGAKTTLYLQMNSLRPEDTAVYYCAARGTLGLFTTADSYDYWGQGTLVTVSSGGGGSGGGSGGASQCLGPEWEVCPYGGGGSGGGLSGRSDAGSPLGLAGSGGGSEVQLVESGGGLVQPGGSLKLSCAASGFTFNKYAMNWVRQASGKGLEWVGRIRSKYNNYATYYADSVKDRFTISRDDSKNTAYLQMNSLKTEDTAVYYCVRHGNFGNSYISYWAYWGQGTLVTVSSGGGGSGGGGSGGGGSQTVVTQEPSFSVSPGGTVTLTCRSSTGAVTSGNYANWVQQTPGQAPRGLIGGTKFLAPGVPDRFSGSILGNKAALTITGAQADDESDYYCVLWYSNRWVFGGGTKLTVLGGGGSQVQLQQSGSELKKPGASVKVSCKASGYTFTNYGMNWVKQAPGQGLKWMGWINTYTGEPTYTDDFKGRFAFSLDTSVSTAYLQISSLKADDTAVYFCARGGFGSSYWYADVWGQGSLVTVSSASTKGPSVFPLAPSSKSTSGGTAALGCLVKDYFPEPVTVSWNSGALTSGVHTFPAVLQSSGLYSLSSVVTVPSSSLGTQTYICNVNHKPSNTKVDKKVEPKSC
notes: Masked polypeptide complex: anti-TROP2 F108A, anti-CD3 with P41S, A49G, N87S ; E227D
B3: PC-39 (bispecific antibody)
light: B1 light
heavy: EVQLVESGGGLVQPGGSLRLSCAASGSTFYTAVMGWVRQAPGKGLEWVAAIRWTALTTSYADSVKGRFTISRDGAKTTLYLQMNSLRPEDTAVYYCAARGTLGLFTTADSYDYWGQGTLVTVSSGGGGSGGGSGGYLCGPDGDETLACYGGGGSGGGLSGRSDAGSPLGLAGSGGGSEVQLVESGGGLVQPGGSLKLSCAASGFTFNKYAMNWVRQASGKGLEWVGRIRSKYNNYATYYADSVKDRFTISRDDSKNTAYLQMNSLKTEDTAVYYCVRHGNFGNSYISYWAYWGQGTLVTVSSGGGGSGGGGSGGGGSQTVVTQEPSFSVSPGGTVTLTCRSSTGAVTSGNYANWVQQTPGQAPRGLIGGTKFLAPGVPDRFSGSILGNKAALTITGAQADDESDYYCVLWYSNRWVFGGGTKLTVLGGGGSQVQLQQSGSELKKPGASVKVSCKASGYTFTNYGMNWVKQAPGQGLKWMGWINTYTGEPTYTDDFKGRFAFSLDTSVSTAYLQISSLKADDTAVYFCARGGFGSSYWYADVWGQGSLVTVSSASTKGPSVFPLAPSSKSTSGGTAALGCLVKDYFPEPVTVSWNSGALTSGVHTFPAVLQSSGLYSLSSVVTVPSSSLGTQTYICNVNHKPSNTKVDKKVEPKSC
notes: Masked polypeptide complex: anti-TROP2 F108A, anti-CD3 with P41S, A49G, N87S ; E227D; CD3 mask YLCGPDGDETLACY
B4: PC-36 (bispecific antibody)
light: B1 light
heavy: not shown
notes: Masked polypeptide complex: anti-TROP2 F108A, anti-CD3 F104A
B5: PC-46 (bispecific antibody)
light: B1 light
heavy: not shown
notes: Masked polypeptide complex: anti-TROP2 F108A, anti-CD3 N30Q, I109V, G172A, V231A
B6: PC-41 (bispecific antibody)
light: B1 light
heavy: B3 heavy with Y136V, L137Y, D141E, G142F, T145S, L146V, A147G, Y149A
notes: as for B2
B7: PC-50 (bispecific antibody)
light: B1 light
heavy: not shown
notes: Masked polypeptide complex: anti-TROP2 F108A, anti-CD3 H101A
B8: PC-37 (bispecific antibody)
light: B1 light
heavy: not shown
notes: Masked polypeptide complex: anti-TROP2 F108A, anti-CD3 F240A; CD3 mask …
B9: PC-52 (bispecific antibody)
light: B1 light
heavy: not shown
notes: Masked polypeptide complex: anti-TROP2 F108A, anti-CD3 N236A
B10: PC-38 (bispecific antibody)
light: B1 light
heavy: not shown
notes: as for B8
B11: PC-45 (bispecific antibody)
light: B1 light
heavy: not shown
notes: Masked polypeptide complex: anti-TROP2 F108A, anti-CD3 N30Q, I109V, G172A, V231A; CD3 mask …
B12: PC-44 (bispecific antibody)
light: B1 light
heavy: not shown
notes: as for B11
B13: PC-43 (bispecific antibody)
light: B1 light
heavy: B2 heavy with A136G, Q138A
notes: as for B2
B14: PC-51 (bispecific antibody)
light: B1 light
heavy: not shown
notes: Masked polypeptide complex: anti-TROP2 F108A, anti-CD3 L232A
B15: PC-35 (bispecific antibody)
light: B1 light
heavy: not shown
notes: as for B1
B16: Peptide-8 (peptide)
peptide: VDFCGLYHWPICYQ
modifications: cysteine pairing not given here; also: biotinylated, site not given here

These binders were tested against T1, Human TROP2 Full length (human, UniProt P09758 31-323) (assay: cell-based or functional assay).
T1 sequence: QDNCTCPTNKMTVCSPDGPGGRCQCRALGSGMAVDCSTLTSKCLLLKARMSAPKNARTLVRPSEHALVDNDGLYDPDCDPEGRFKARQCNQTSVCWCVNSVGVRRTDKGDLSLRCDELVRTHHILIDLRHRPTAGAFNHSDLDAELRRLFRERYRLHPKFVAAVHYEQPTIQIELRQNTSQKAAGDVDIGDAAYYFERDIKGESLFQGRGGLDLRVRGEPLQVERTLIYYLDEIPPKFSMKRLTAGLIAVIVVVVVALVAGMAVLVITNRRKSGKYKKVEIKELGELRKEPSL

Binder	H292 Cytotoxicity EC50 (pM)	HCT116 Cytotoxicity EC50 (pM)
B1	> 100000	–
B2	12200	–
B3	13700	> 100000
B4	> 100000	–
B5	> 100000	–
B6	47000	–
B7	> 100000	–
B8	> 100000	> 100000
B9	98300	–
B10	> 100000	–
B11	> 100000	–
B12	51000	–
B13	12700	–
B14	> 100000	–
B15	> 100000	> 100000

Biological target: T2, Cyno TROP2 Full length (cynomolgus monkey, UniProt P09758 31-323 (human entry))
T2 chain: T1 sequence with M32V, S63N, I200V, M262V, T268S
Assay: cell-based or functional assay

CyTROP2 HEK293 EC50 (pM)	Binder
16500	B1
665	B3
> 870000	B4
45600	B5
5130	B6
> 100000	B7
> 100000	B8
37700	B9
1220	B13
79300	B14
> 100000	B15

Each binder was assayed against T3, TBD-11 (HC R98A) (assay: competition ELISA, peptide vs Fab binding to captured biotin-TROP2).
T3 construct: Fab; also called HC R98A mutant
T3 sequence (VH, as listed by the source, chain 1 of 2, one chain of several): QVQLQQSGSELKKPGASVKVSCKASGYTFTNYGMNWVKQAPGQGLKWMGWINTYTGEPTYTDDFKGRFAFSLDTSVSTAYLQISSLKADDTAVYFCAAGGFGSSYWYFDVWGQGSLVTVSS
Method: (§1) ELISA-based competitive inhibition studies were used to test the ability of each peptide to inhibit the TBDs from binding to TROP2. […] Inhibitory peptides were titrated in a dilution series and pre-incubated with a constant concentration of antibody. Inhibitory peptide and antibody mixtures were then incubated on the antigen captured plates. A horseradish peroxidase conjugate secondary antibody was then used to detect the antibody binding to the plate-bound antigen. The ELISA signal was plotted versus log-scale peptide concentration. A dose dependent decrease of signal was indicative of peptides that compete for antibody binding to the cognate antigen. Graphpad Prism software was used to calculate the inhibitory concentrations of peptide required to achieve 50% maximal signal (IC₅₀s).

IC50 [nM]	Binder
300	B16

The binders below were run against T4, TBD-17 (HC S104A) in the same assay as above.
T4 construct: Fab; also called HC S104A mutant
T4 sequence (VH, as listed by the source, chain 1 of 2, one chain of several): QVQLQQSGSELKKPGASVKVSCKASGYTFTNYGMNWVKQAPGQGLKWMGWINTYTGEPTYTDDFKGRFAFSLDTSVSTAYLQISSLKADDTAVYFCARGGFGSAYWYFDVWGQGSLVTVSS
Method: as §1

IC50 [nM]	Binder
890	B16

These binders were tested against T5, TBD-21 (HC F108A) in the same assay as above.
T5 construct: Fab; also called HC F108A mutant
Method: as §1

IC50 [nM]	Binder
610	B16

These binders were tested against T6, TBD-22 (HC D109A) in the same assay as above.
T6 construct: Fab; also called HC D109A mutant
T6 sequence (VH, as listed by the source, chain 1 of 2, one chain of several): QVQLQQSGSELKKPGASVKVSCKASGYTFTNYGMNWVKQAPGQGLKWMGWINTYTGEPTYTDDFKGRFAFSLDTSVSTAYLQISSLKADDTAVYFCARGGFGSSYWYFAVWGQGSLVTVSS
Method: as §1

IC50 [nM]	Binder
20	B16

Biological target: T3, TBD-11 (HC R98A)
Assay: as above
Remark: another data set of the same source
Method: as §1

IC50 [nM]	Binder
620	B16

Biological target: T4, TBD-17 (HC S104A)
Assay: as above
Remark: another data set of the same source
Method: as §1

IC50 [nM]	Binder
870	B16

Biological target: T5, TBD-21 (HC F108A)
Assay: as above
Remark: another data set of the same source
Method: as §1

IC50 [nM]	Binder
1010	B16

Biological target: T6, TBD-22 (HC D109A)
Assay: as above
Remark: another data set of the same source
Method: as §1

IC50 [nM]	Binder
80	B16

These binders were tested against T7, CD3 (human, UniProt P07766 23-126, limits assumed, biotinylated) (assay: ELISA; biotinylated CD3 on neutravidin plates, PC titrated, HRP secondary).
T7 construct: also called biotinylated CD3; CD3-biotin
T7 sequence (P07766 23-126 limits assumed): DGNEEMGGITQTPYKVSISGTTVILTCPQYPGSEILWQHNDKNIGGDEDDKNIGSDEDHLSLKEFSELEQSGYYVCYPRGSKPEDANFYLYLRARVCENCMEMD
Method: (§2) TROP2 TCEs and masked polypeptide complexes (PCs) were evaluated for their ability to bind TROP2 and CD3 by ELISA. […] The TCE or PC constructs diluted in buffer were then added to the antigen coated plates. Binding was measured using a standard horse radish peroxidase secondary antibody. The concentration of TCE or PC required to achieve 50% maximal signal (EC₅₀) was calculated.

EC50 [nM]	Binder
283	B1
60.2	B2
136	B3
2920	B4
556	B5
230	B6
454	B7
1300	B8
242	B9
77.6	B10
97	B11
77.3	B12
60.7	B13
410	B14
30	B15

The binders below were run against T8, Human TROP2 ECD (31-274 AA) (human, UniProt P09758 31-274, biotinylated) (assay: ELISA; biotinylated TROP2 on neutravidin plates, PC titrated, HRP secondary).
T8 construct: also called biotinylated TROP2; TROP2-biotin
T8 sequence: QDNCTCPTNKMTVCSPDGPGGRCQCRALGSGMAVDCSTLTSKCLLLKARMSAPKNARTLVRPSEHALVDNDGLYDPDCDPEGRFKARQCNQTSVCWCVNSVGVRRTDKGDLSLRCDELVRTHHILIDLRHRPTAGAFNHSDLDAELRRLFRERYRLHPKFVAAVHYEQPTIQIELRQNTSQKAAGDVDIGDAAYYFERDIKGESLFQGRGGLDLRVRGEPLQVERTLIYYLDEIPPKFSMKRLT
Method: as §2

EC50 [nM]	Binder
828	B1
630	B2
1090	B3
1470	B4
2550	B5
1380	B6
1220	B7
1510	B8
1210	B9
3020	B10
4010	B11
1140	B12
587	B13
1160	B14
2080	B15
